Test results taken from article PMC7007383 (Cancer discovery, 2019).
One block for each binder: values may come before it.

Tests used:
[1] = molecular target: recombinant RHOA wild type (human, UniProt P61586 1-193); assay: other fluorescence titration
[2] = molecular target: recombinant RHOA Y42C (human, UniProt P61586 1-193, Y42C); assay: other fluorescence titration
Chain of recombinant RHOA Y42C (P61586 whole entry Y42C): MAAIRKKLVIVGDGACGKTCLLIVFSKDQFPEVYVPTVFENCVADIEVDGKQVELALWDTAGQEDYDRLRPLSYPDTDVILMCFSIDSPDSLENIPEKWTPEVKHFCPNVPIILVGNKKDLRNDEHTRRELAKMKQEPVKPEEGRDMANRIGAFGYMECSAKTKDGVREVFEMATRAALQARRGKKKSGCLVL

Chain of recombinant RHOA wild type (P61586 whole entry): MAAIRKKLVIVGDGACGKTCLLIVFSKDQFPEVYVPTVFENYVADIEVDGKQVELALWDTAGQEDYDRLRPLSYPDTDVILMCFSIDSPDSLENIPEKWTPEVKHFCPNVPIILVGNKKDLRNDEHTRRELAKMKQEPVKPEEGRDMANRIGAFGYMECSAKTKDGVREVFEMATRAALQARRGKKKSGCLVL

Kd [1]: 460 ± 60 nM
B1: mDia RHOA-GTP binding domain (RBD) (domain or fragment)
chain: LQDISDEQVLVLFEQMLVDMNLNEEKQQPLREKDIVIKREMVSQYLHTSKAGMNQKESSRSAMMYIQELRSGLRDMHLLSCLESLRVSLNNNPVSWVQTFGAEGLASLLDILKRLHDEKEETSGNYDSRNQHEIIRCLKAFMNNKFGIKTMLETEEGILLLVRAMDPAVPNMMIDAAKLLSALCILPQPEDMNERVLEAMTERAEMDEVERFQPLLDGLKSGTSIALKVGCLQLINALITPAEELDFRVHIRSELMRLGLHQVLQELREIENEDMKVQLCVFDEQGDEDFFDLKGRLDDIRMEMDDFGEVFQIILNTVKDSKAEPHFLSILQHLLLVRNDYEARPQYYKLIEECVSQIVLHKNGTD

Kd [1]: 380 ± 30 nM | fold change of binding against RHOA WT [2]: 12 fold
B2: ROCK RHOA-GTP binding domain (RBD) (domain or fragment)
chain: TKDIEILRRENEELTEKMKKAEEEYKLEKEEEISNLKAAFEKNINTERTLKTQAVNKLAEIMNRKDF

Kd [1]: 500 ± 40 nM
B3: Rhotekin RHOA-GTP binding domain (RBD) (domain or fragment, UniProt Q8C6B2 17-98, looked up)
chain: ALEMEFKRGRFRLSFFSESPEDTELQRKLDHEIRMRDGACKLLAACSQREQALEATKSLLVCNSRILSYMGELQRRKEAQVL
